In publication PMC5190049, “Immunogenicity of mammary tumor cells can be induced by shikonin via direct binding-interference with hnRNPA1” (Oncotarget, 2016):
One block for each molecule: values may come before it.

Experiments:
hnRNPA1 (UP1) = target: T1, hnRNPA1 (UP1) (Homo sapiens, UniProt P09651); test: isothermal titration calorimetry; assay type: binding
T1 construct: UP1, first 196 amino acids (N-terminal fragment with both RRMs); pET-42a, GST-His tag cut by Factor Xa; E. coli BL21(DE3)

[1] = target: T2, hnRNPA1 N-terminal fragment (UP1) (human, UniProt P09651 1-196); test: ITC; N = 1.17 +/- 0.128; pH 7.0; 3 uM UP1, 60 uM RNA; Kd not given in text; EMSA: 20 mM HEPES, 50 mM KCl, 1 mM EDTA, 5 mM MgCl2, 0.1 mg/ml tRNA, 0.1 mg/ml BSA, 5 mM DTT, 10% glycerol, room temperature; ITC: 300 mM NaCl, 50 mM Tris-HCl; details: protein: recombinant; tags: GST-His fusion tag removed with Factor Xa
T2 sequence (P09651 1-196): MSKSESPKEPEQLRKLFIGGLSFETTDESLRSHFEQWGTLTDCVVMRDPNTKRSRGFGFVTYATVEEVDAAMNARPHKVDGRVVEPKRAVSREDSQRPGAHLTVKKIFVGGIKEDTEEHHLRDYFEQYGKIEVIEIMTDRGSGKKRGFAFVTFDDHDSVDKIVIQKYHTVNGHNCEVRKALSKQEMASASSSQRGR

[2] = target: T2, hnRNPA1 N-terminal fragment (UP1); test: EMSA; without shikonin; shikonin 0-4 ug/test disrupts binding dose-dependently; EMSA: 20 mM HEPES, 50 mM KCl, 1 mM EDTA, 5 mM MgCl2, 0.1 mg/ml tRNA, 0.1 mg/ml BSA, 5 mM DTT, 10% glycerol, room temperature; ITC: 300 mM NaCl, 50 mM Tris-HCl; details: protein: recombinant; tags: GST-His fusion tag removed with Factor Xa; label: 5'-biotin
[3] = target: T2, hnRNPA1 N-terminal fragment (UP1); test: EMSA; without shikonin; shikonin 0-4 ug/test disrupts binding; EMSA: 20 mM HEPES, 50 mM KCl, 1 mM EDTA, 5 mM MgCl2, 0.1 mg/ml tRNA, 0.1 mg/ml BSA, 5 mM DTT, 10% glycerol, room temperature; ITC: 300 mM NaCl, 50 mM Tris-HCl; details: protein: recombinant; tags: GST-His fusion tag removed with Factor Xa; label: 5'-biotin
[4] = target: T2, hnRNPA1 N-terminal fragment (UP1); test: EMSA; shikonin 0-4 ug/test; EMSA: 20 mM HEPES, 50 mM KCl, 1 mM EDTA, 5 mM MgCl2, 0.1 mg/ml tRNA, 0.1 mg/ml BSA, 5 mM DTT, 10% glycerol, room temperature; ITC: 300 mM NaCl, 50 mM Tris-HCl; details: protein: recombinant; tags: GST-His fusion tag removed with Factor Xa; label: 5'-biotin

T1 sequence (P09651 1-196): as above

- Kd (hnRNPA1 (UP1)): 71.2 µM
Molecule: CC(C)=CC[C@@H](O)C1=CC(=O)c2c(O)ccc(O)c2C1=O [shikonin]

Molecule: AUUUAGGGAUUUAGGGAAUG (ssRNA) [WT RNA (ITC)]
- binding result [1]: binds

Molecule: TTAGGGTTAGCG (ssDNA) [TR2]
- binding result [2]: binds

Molecule: AUUUAGGGAUUUAGGGAAUG (ssRNA) [WT RNA]
- binding result [3]: binds

Molecule: AUUUCGGGAUUUCGGGAAUG (ssRNA) [M3 RNA (called M2 in Figure 2c legend)]
- binding result [4]: no binding
